Common to all, as to assay: cell-based or functional assay
The target of assay [1] is human GLP-1R (SNAP-GLP-1R expressed in HEK293 cells) (human) (UniProt P43220).
For another assay, the target named is hGLP-1R (Homo sapiens, UniProt P43220).
Assay [2] concerns the target human glucagon receptor (human) (UniProt P47871).
Assay [3] deals with T1, human GIP receptor (human) (UniProt P48546).
T1 sequence (looked up): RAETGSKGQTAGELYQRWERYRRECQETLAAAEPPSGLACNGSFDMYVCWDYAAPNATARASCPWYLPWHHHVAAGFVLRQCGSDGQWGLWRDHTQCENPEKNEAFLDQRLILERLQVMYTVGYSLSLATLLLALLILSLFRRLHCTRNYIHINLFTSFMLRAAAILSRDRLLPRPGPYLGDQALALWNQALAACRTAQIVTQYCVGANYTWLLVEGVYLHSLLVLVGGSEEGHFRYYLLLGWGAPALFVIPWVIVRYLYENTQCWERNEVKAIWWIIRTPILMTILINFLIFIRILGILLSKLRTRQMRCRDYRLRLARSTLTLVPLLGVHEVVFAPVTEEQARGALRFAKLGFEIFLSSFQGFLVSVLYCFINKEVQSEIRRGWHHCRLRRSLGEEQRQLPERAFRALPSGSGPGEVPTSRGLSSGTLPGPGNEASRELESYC

Starred links: 1 amine or outer side, 2 acyl side, 3 side chain; linkers in the order of their positions; H or OH if unused. Non-standard residues stand in square brackets, D forms with d. Groups on a side chain read outwards from the residue. No end group written: not given here. *: point of attachment. C18 diacid = O=C(O)CCCCCCCCCCCCCCCCC(=O)*; γGlu = O=C(O)[C@H](CCC(=O)[*:2])N[*:1]; αMeL = CC(C)C[C@](C)(N)C(=O)O; Dap = NC[C@H](N)C(=O)O; AEEA = NCCOCCOCC(=O)O; Aib = CC(C)(N)C(=O)O

Sequence of human glucagon receptor (human) (P47871 26-477): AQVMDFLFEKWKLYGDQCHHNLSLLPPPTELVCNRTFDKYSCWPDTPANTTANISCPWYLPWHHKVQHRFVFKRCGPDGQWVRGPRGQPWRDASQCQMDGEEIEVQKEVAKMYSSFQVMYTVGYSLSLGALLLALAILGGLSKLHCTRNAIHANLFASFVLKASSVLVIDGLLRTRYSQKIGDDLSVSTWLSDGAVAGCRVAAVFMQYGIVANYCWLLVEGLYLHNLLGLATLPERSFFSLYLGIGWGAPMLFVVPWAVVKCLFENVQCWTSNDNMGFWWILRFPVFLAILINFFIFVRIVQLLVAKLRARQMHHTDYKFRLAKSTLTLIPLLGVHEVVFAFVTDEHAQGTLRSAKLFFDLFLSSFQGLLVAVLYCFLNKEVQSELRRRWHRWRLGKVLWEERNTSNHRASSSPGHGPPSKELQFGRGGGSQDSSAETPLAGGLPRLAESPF
Sequence of human GLP-1R (SNAP-GLP-1R expressed in HEK293 cells) (human) (P43220 24-463): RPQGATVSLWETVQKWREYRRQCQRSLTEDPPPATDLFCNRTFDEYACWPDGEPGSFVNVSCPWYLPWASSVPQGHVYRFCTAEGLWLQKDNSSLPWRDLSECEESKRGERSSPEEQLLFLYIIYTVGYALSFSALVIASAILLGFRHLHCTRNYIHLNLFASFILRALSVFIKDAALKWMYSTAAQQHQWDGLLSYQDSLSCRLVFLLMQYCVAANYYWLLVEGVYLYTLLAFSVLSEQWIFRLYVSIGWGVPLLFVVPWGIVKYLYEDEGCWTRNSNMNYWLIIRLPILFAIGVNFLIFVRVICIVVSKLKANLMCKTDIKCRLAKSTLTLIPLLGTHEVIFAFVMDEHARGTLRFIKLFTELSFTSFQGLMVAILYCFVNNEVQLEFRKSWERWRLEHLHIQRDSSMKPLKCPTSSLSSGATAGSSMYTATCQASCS
Sequence of hGLP-1R (P43220 24-463): as above

B1: Example 136 (peptide)
chain: YXQGTFTSDFSXXLDKKAQXAFIEWLLEGGPSSGAXPPSGE
modifications: synthetic construct; SITE 2: note = 2-Aminoisobutyric Acid; SITE 12: note = L-ornithine; SITE 13: note = alpha-methyl-leucine; SITE 17: note = Lysine is chemically modified through conjugation of the epsilon-amino group of the Lysine side chain with (2-[2-(2-Amino-ethoxy)-ethoxy]-acetyl)-(gamma-Glu)
In assay [1], B1 gave a GLP1R Internalization EC50 of 36.1 nM and an Internalization % TOP of 37.8%. Also, in the assay with hGLP-1R, the Relative cAMP EC50 was found to be 3.8 nM and the cAMP Rel EC50, nM (in the presence of 1% HSA) is 625 nM. Also, in assay [2], the Relative cAMP EC50 was found to be 8.73 nM and the cAMP Rel EC50, nM (in the presence of 1% HSA) was determined as 960 nM. Further, in assay [3], the Relative cAMP EC50 came out at 0.221 nM and the cAMP Rel EC50, nM (in the presence of 1% HSA) came to 32.9 nM.

B2: Example 137 (peptide)
chain: YXQGTFTSDFSXXLDKKAQXAFIEWLLEGGPSSGAPXPSGE
modifications: synthetic construct; SITE 2: note = 2-Aminoisobutyric Acid; SITE 12: note = L-ornithine; SITE 13: note = alpha-methyl-leucine; SITE 17: note = Lysine is chemically modified through conjugation of the epsilon-amino group of the Lysine side chain with (2-[2-(2-Amino-ethoxy)-ethoxy]-acetyl)-(gamma-Glu)
B2 displayed a GLP1R Internalization EC50 in assay [1] of 60.2 nM. For the same molecule, the Internalization % TOP in assay [1] worked out at 47.7%. Besides, the Relative cAMP EC50 with hGLP-1R was 3.18 nM; in assay [2], 4.43 nM; in assay [3], 0.269 nM. Also, the cAMP Rel EC50, nM (in the presence of 1% HSA) in the assay with hGLP-1R was determined as 447 nM; in assay [2], 905 nM; in assay [3], 23.7 nM.

B3: Example 143 (peptide)
chain: YXQGTFTSDFSRXLDKKAQXAFIEYLLEGGPSSGAPPPSGS
modifications: synthetic construct; SITE 2: note = 2-Aminoisobutyric Acid; SITE 13: note = alpha-methyl-leucine; SITE 17: note = Lysine is chemically modified through conjugation of the epsilon-amino group of the Lysine side chain with (2-[2-(2-Amino-ethoxy)-ethoxy]-acetyl)-(gamma-Glu)-CO-(CH2) 16-CO2H; SITE 20: n
As to B3, the GLP1R Internalization EC50 in assay [1] was determined as 337 nM. Moreover, the Internalization % TOP in assay [1] was 43%. Besides, the Relative cAMP EC50 with hGLP-1R was 2.44 nM; in assay [2] it was 4.51 nM; in assay [3], 0.211 nM. Further, the cAMP Rel EC50, nM (in the presence of 1% HSA) is 594 nM with hGLP-1R, 1690 nM in assay [2] and 63.9 nM in assay [3].

B4: Example 141 (peptide)
chain: YXQGTFTSDFSKXLDKKAQXAFIEYLLEGGPSSGAPPPSGS
modifications: synthetic construct; SITE 2: note = 2-Aminoisobutyric Acid; SITE 13: note = alpha-methyl-leucine; SITE 17: note = Lysine is chemically modified through conjugation of the epsilon-amino group of the Lysine side chain with (2-[2-(2-Amino-ethoxy)-ethoxy]-acetyl)-(gamma-Glu)-CO-(CH2) 16-CO2H; SITE 20: n
Take B4: in assay [1], the GLP1R Internalization EC50 is 95.3 nM and the Internalization % TOP came to 64.1%. In the assay with hGLP-1R, the Relative cAMP EC50 came out at 1.96 nM and the cAMP Rel EC50, nM (in the presence of 1% HSA) is 562 nM. Moreover, in assay [2], the Relative cAMP EC50 is 1.77 nM and the cAMP Rel EC50, nM (in the presence of 1% HSA) amounted to 877 nM. Also, in assay [3], the Relative cAMP EC50 was 0.21 nM and the cAMP Rel EC50, nM (in the presence of 1% HSA) is 62.1 nM.

B5: Example 151 (peptide)
chain: YXQGTFTSDFSQXLDKKAQXAFIEYLLEXGPSSGAPPPSGS
modifications: synthetic construct; SITE 2: note = 2-Aminoisobutyric Acid; SITE 13: note = alpha-methyl-leucine; SITE 17: note = Lysine is chemically modified through conjugation of the epsilon-amino group of the Lysine side chain with (2-[2-(2-Amino-ethoxy)-ethoxy]-acetyl)-(gamma-Glu)-CO-(CH2) 16-CO2H; SITE 20: n
As to B5, in assay [1], the GLP1R Internalization EC50 amounted to 77.8 nM and the Internalization % TOP stood at 55%. In the assay with hGLP-1R, this molecule showed a Relative cAMP EC50, nM (0.1% casein) of 1.6 nM and a cAMP Rel EC50, nM (1% HSA) of 384 nM. In assay [2], this molecule gave a Relative cAMP EC50, nM (0.1% casein) of 3.5 nM and a cAMP Rel EC50, nM (1% HSA) of 1420 nM. In assay [3], this molecule had a Relative cAMP EC50, nM (0.1% casein) of 0.0784 nM and a cAMP Rel EC50, nM (1% HSA) of 14.9 nM.

B6: Example 148 (peptide)
chain: YXQGTFTSDFSRXLDKKAQXAFIEYLLEGGESSGAPPPSGS
modifications: synthetic construct; SITE 2: note = 2-Aminoisobutyric Acid; SITE 13: note = alpha-methyl-leucine; SITE 17: note = Lysine is chemically modified through conjugation of the epsilon-amino group of the Lysine side chain with (2-[2-(2-Amino-ethoxy)-ethoxy]-acetyl)-(gamma-Glu)-CO-(CH2) 16-CO2H; SITE 20: n
In assay [1], B6 registered a GLP1R Internalization EC50 of 95.5 nM and an Internalization % TOP of 37.4%. Further, in the assay with hGLP-1R, the Relative cAMP EC50, nM (0.1% casein) turned out to be 2.82 nM and the cAMP Rel EC50, nM (1% HSA) stood at 870 nM. In assay [2], this molecule returned a Relative cAMP EC50, nM (0.1% casein) of 3.92 nM and a cAMP Rel EC50, nM (1% HSA) of 1330 nM. Further, in assay [3], the Relative cAMP EC50, nM (0.1% casein) was 0.352 nM and the cAMP Rel EC50, nM (1% HSA) was determined as 74.2 nM.

Regarding Y[Aib]QGTFTSDFS[Dap][αMeL]LDKK([AEEA-γGlu-C18 diacid])AQ[Aib]AFIEYLLE[Aib]GPSSGAPPPSGS-NH2 (ends and bridges not checked) [Example 134], in assay [1], the GLP1R Internalization EC50 stood at 67.9 nM and the Internalization % TOP stood at 22.3%. Besides, in the assay with hGLP-1R, the Relative cAMP EC50 came out at 3.36 nM and the cAMP Rel EC50, nM (in the presence of 1% HSA) was 549 nM. Also, in assay [2], the Relative cAMP EC50 came to 7.28 nM and the cAMP Rel EC50, nM (in the presence of 1% HSA) was found to be 1200 nM. Besides, in assay [3], the Relative cAMP EC50 amounted to 0.152 nM and the cAMP Rel EC50, nM (in the presence of 1% HSA) was 38.3 nM.

(Values after patent US20240270821A1, “GIP/GLP1/GCG TRI-RECEPTOR AGONISTS AND USES THEREOF” (priority 2023, published 2024).)
